The target in the assay is T1, His-labeled kinase domain of CEPR2 (CEPR2^KD-His, amino acids 642–977) (Arabidopsis thaliana, UniProt Q9C7T7 642-977).
T1 sequence: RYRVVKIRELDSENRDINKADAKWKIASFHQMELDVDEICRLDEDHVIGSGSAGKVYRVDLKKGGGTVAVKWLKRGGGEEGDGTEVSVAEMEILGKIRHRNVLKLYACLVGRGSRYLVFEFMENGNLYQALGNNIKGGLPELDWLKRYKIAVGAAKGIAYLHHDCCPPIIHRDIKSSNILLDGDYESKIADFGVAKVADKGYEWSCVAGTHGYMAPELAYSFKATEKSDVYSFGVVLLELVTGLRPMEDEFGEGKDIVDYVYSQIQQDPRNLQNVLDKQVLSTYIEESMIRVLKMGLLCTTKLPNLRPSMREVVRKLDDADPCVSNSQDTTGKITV
The assay can be described thus: pull-down.

B1: GST-tagged PYL2 (PYL2–GST) (receptor)
chain: MSSSPAVKGLTDEEQKTLEPVIKTYHQFEPDPTTCTSLITQRIHAPASVVWPLIRRFDNPERYKHFVKRCRLISGDGDVGSVREVTVISGLPASTSTERLEFVDDDHRVLSFRVVGGEHRLKNYKSVTSVNEFLNQDSGKVYTVVLESYTVDIPEGNTEEDTKMFVDTVVKLNLQKLGVAATSAPMHDDE
On to B1, for which the binding result was “binds”.

B2: GST-tagged PYL4 (PYL4–GST) (receptor)
chain: MLAVHRPSSAVSDGDSVQIPMMIASFQKRFPSLSRDSTAARFHTHEVGPNQCCSAVIQEISAPISTVWSVVRRFDNPQAYKHFLKSCSVIGGDGDNVGSLRQVHVVSGLPAASSTERLDILDDERHVISFSVVGGDHRLSNYRSVTTLHPSPISGTVVVESYVVDVPPGNTKEETCDFVDVIVRCNLQSLAKIAENTAAESKKKMSL
B2: the binding result is “binds”.

(Values after paper PMC6793440 (Journal of Experimental Botany, 2019).)
